{"source": "patent US20130041017A1", "about": "“SIRNA-BASED THERAPY OF FIBRODYPLASIA OSSIFICANS PROGRESSIVA (FOP)” (The Trustees of the University of Pennsylvania, published 2013)", "binders": {"B1": {"name": "Human recombinant BMP4 (ligand)", "chain": "SPKHHSQRARKKNKNCRRHSLYVDFSDVGWNDWIVAPPGYQAFYCHGDCPFPLADHLNSTNHAIVQTLVNSVNSSIPKACCVPTELSAISMLYLDEYDKVVLKNYQEMVVEGCGCR"}}, "molecular_target": "T1, ACVR1 Arg206His mutant (R206H; c.617G>A), mutated Activin A type I receptor protein (human)", "T1 chain": "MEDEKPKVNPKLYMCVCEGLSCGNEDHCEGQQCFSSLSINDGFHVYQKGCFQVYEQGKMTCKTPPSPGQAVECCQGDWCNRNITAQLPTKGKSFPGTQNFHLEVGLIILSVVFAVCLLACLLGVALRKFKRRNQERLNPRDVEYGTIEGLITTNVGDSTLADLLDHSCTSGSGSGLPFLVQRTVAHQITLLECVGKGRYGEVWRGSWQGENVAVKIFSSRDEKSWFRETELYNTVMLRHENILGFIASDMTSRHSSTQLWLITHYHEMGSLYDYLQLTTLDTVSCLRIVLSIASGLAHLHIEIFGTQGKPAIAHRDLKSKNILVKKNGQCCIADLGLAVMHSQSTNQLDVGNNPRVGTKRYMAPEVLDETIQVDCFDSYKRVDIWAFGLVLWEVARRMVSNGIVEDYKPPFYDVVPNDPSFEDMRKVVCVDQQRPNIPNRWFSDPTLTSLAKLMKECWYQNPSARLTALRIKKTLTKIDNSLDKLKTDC", "assay": "cell-based or functional assay", "data": [{"binder": "B1", "values": [{"measurement": "phosphorylated Smad1/5/8 (pSmad1/5/8) by immunoblotting", "result": "~2", "unit": "fold"}]}]}
